According to the domain aggregation screens of Martell et al. (2025):

Assay: soluble fraction after stress (log2 fold change); higher = more stays soluble; pooled small domains, quantitative proteomics
Conditions: stress: 75 degC
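Also: 20 min heating vs room temperature control held 20 min.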

Sequence	soluble fraction (log2)
HMGSLVVVPNLVGQNYDEVKLSTKYSDFEIVQKNTEYSEAPAGQIIKQDPEAGTKVKKHSTINVTVSK	-0.167
HMGSQELIQLGERIRQKRKDSHLTQETFAEKAGISVNTVSRIEGGQAAMSIEIFAKLVEILDADANELLG	-1.39
HMGSRAEAKEFLQTMLADGRQLATDMEEARQAHDIADRTLRRARKELNVQVYRDGNAWYWELPTPIK	-0.585
HMGSREVPFSDFISKVESGSVLEVVLRGRQVEGLTDANERFQTQIPNYPALFEILERNQVRTRVEPT	-0.0642
HMGSTATVIASRLNMRASASTTGALLTKIPNGATVTVLGTTGAWSHIRYGSYTGYVMSQYLRING	-3.1
HMGSTVRIVVPAADIPAYKDIQPSDLEYREVPKDEISEDAVTDPQEVINKYSTSPLYAGWPINKNIIET	-0.0405
HMGSYANAWQLAEHAAKDMLGEVIYLLDGKEVHAGILETMSAESIKTASAENVDGKVVIRLVSK	-0.15
HMGSYIGEAKAKEIALSHAGVSASQATFVRSQFEYDDGRAVYDVDFWSGNKEYDYEIDAKSGTIVSYDFD	-0.736
HMGSYVVQLGAFAIRANAEKLAREVDGSIATSGRFSLVRVGPFTSRGQAEQALAKLRARGYSDALIHSL	-2.39
HMGTDFRPVFQYVDELVRAGEFTNLKGMIYFTDGRGIFPEKKPDYDAAFVFLDDGYDPPDVPVWAIKLVL	-0.0422
HMGTGSSAERITMLNSILERQIQAMEIQGNPDAPIVNIQKIYTTLQRIVETAGLKDVDQFFMNPLQGQKEM	-0.134
HMGTIRAPMPGTILKINVVDGDSVTKGDVLLILESMKMENSITSPKTGSVTSVYVSEGDPVQHGETLIDL	-0.196
HMGTISKRINPSGTTVYRAVIRIRKNGYPNFTESRTFSKKSMAAEWVKRREAEIELNPDILFG	-2.57
HMGTLSLLVQKLMAVGLEGAKASEIVERFDRERIERQINALPSRKIKSSRTGFLIRAIELDIPVE	-2.58
HMGTPKMPLSLYLSMVENLRSLKRFALVNQQVKDGFVFFNDVAGIKRLQELLNYHNTGEKPSE	-2
HMGTRIQAVMEDIQSRIAARTYLPGTRLPSVRAQAQAMQVSVSTVVEAYERLAAEGVIASRPGSGFYVAGP	-3.05
HMGTRPAYAADAPNPQKRFIYHRIVDQLRNKATGAPISYRAIAAETGVSVQTVINIKNRMNQMLSEK	-1.27
HMGTRPIQIASFSKEENAKRAVEALAKIGITAQPQKSGSATKAVWGVVANGDADLLAKIKAAGFADAYFL	0.0154
HMGTRTILGIDPGSRKTGFGIIRLDGSRTHYVSSGVIRIPDTALPERLKIIFASLNEIIQQFQPQEV	-0.339
HMGTRYVEFVIPGTGNHEVRIVSSNGSRQNVEVAGTYPGGARLRTKVDNGVRRVSFYVDNRLVEEKQ	-0.26
HMGTSFKITFYKDAFQVDDGPIRMLNDPANQKFVDEVSQGYAPKELIGQGGKAPEIDIIDKRSENAPT	0.156
HMGTVFTDIMTDIASGKFPNVFPDSLEAQIQKNVTMAPDKLSATLQYGDKSVILPTTKGKEAAEAAVKAA	0.000803
HMGTYTSALDGIKGLGKKRKMLLLNTYKSIDVLKSVPLTELSQLIPREVAEALLTKLNRVDD	-1.18
HMGVDASVDSKLDLLSQVLDSDQVKEQLPEAVLEQLAQNLDRWRSLHEESELQDDDIAELNRLLGLFGLG	0.111
HMGVEKHLRITGTSTVSWKDAIVQAVAEASKTIDYLSNVKIIEQRARIDGKKLVEYFVDLDLSFVID	-0.23
HMGVGITAPLAGNIFKIVVQPGDVVASGDVVLVLEAMKMETEIRAASGGTVSQVLVREGDAVDAGHTLITL	-2.85

Sequence	soluble fraction (log2)
HMGVGVTAPLAGNIFKIVKQPGDVVASGDVVLILEAMKMETEIRAAAGGTVKQVLVREGDAVDAGHTLMTL	-1.38
HMGVHSVVPDIKNKHYGEAKAILAANGLSIEISDSIYDRSVAPGTVVESWPKAGAIVKGDRAVFVTLTAF	-1.61
HMGVMTGAEFVGNTVASVERNLIIDTLKHTMGNRTTAANILGISIRTLRNKLKQYQNEGFDIPE	-1.11
HMGVPELHKGEIVQAVVEKVLGEGLLRVNLKGMTVEAATSLRLNPGQQLLLRSEGIENGRQVLR	0.275
HMGVQKGKDNALAVQQWIAERDATGDFGEYERRGIINRSALFDELGIPRSSMGSNDQIRQMIEAADVRWF	-0.47
HMGVREIIVQFLEQFDKPKSVQEIVEYVLRYRNTTENSIRSTMYSGSQFRQFDNGYFGLSDKSYPNEYIYA	-1.49
HMGVRLAPEVDRIPYGQMHPNLKKVKDLYEASYKAYVQALSSGNQALAKEKLEEFQSTKARYQRALSAYT	0.305
HMGVRVEVDAVTPPGAMASGSVVFSDGESKKWSVDQFGRLAMTGGAPDYKPSDQDVMEFQQQLEQSL	0.125
HMGVSAGQVRGLIRNLIAGEDKSKPLSDLALERELEKREIRISRRTVAKYRAELGIPNSDQRRYLP	-1.68
HMGVSLKEIQENLSLIDDAAQKLASGQGTVDDAVGMGNAGKDIYDNIEGYVSSPKEFINGVLSSV	-0.0252
HMGVSVNVQPAILDWAMQKAQMGNAGSSVIEMIAKWISGEKAPTFNQIEDVSKKISIPFGFFFLKEPPIE	-2.05
HMGVTGYPNPTREHITWDDARRIEVWNAYGVPVADLRFARGVLDVAGWPVGTYVARIDGGRSVRFVVI	-1.05
HMGVTVDEVHRNFESGMNVVHKKFGAGVVDSFDEGKIRINFDGVIKVFIADVLINSGMLESVSYTH	-0.832
HMGWEDLVGKTAVVKVALAPVGMVFFRGEFWSAISETGRIEPGEEVTISRIDGLKLYVTKKRIM	-3.89
HMGWEPTPVLVAARDISGGTVLDQDMLRVEAIPSRLVTPSIVRSDLLASVQDAKLLLPMKQGDLLNFNMLQ	-0.0591
HMGWVMLVIMSRGASEAQINAVVEKIRAAGLTEHLSKGIERTIIGAIGEERKLEPEVFELLPGVEQALHIV	-2.2
HMGYDSYDADTIPKLKIGSIVEHPKFGEGSIISKAGAEVTIAFKIKGVKKINLEYTSIKVLK	-1.67
HMGYGEQEQEAQKYLALHALMSQDPTLAKMYQAPNQYKLMSHVMEQNGIKNVNDYLTDPQQLP	-0.157
HMGYKDIDKLSGVDLAIYRFIVEHDEQIPYMRVRELARGAHVSNSSVMRFIRKIGYDSFPEFKVSLRS	-0.0854
HMGYPGLGSIGSKPLGDLLFQSKLFVKTKREFAEFKMANNNIVWGRRTQYLVRNYPLSVMEVFL	-0.0522
HMHAGQIISQKIKESGISISHVAKHLKVQRATLYNLFEREVWPAHRLRTIEALLHIDLSDLYP	-2.61
HMHANAALTPRQRLRLAQKIVDEEWTVAAAADYFRVSWPTAAKWARRYVELGEAGMADRSSRP	-2.55
HMHDEKHHQLANEIARKWAALRGNRDFAAADELKNLAAEAGVELQATKQAVGQGALAKLKENFDPVKLEAL	0.192
HMHDLDALTGLSGEARSKVYEEGSVFVAGEMWSAKSDAVIPAGSSIRVVRREGFILVVEKDS	-2.48
HMHDYTTIIGVIELRLNKISYDNVQKRYRIGRSGISLIMERYRDSGLSLDDLKQMPAEKVVNLIYPKD	-2.88
HMHDYYDSIDAVTHDKSYESNLVFALKLGYTETQLQKALLKLGKKAREDQILEELIRIQKSSKA	-0.362

Sequence	soluble fraction (log2)
HMHEGNWTLPNPMPIGTTLTLPEHSRLYISNLAGQRVFETSATSVEIPLLPKGTYLLRLETMNGHTTRKIL	-0.106
HMHELKIEKVAEAPNGAMRLLLSDGSEWVLGVKSWNRLNLSLEKILDVNVLRALEKESQYHLLRTKALEL	-1.39
HMHFIMEYRIRAYVDELFESAPRTQRAYELKIELTQNLIDKYYALVSEGKSEQDAYNLTVMSIGDVREL	-3.01
HMHGEAVVVPNVKGLPMRQAENEIYKQSLKAVAIDSSYVKGMPPGAILEQNPAGGSKVKKGRTVYLTINMD	-0.268
HMHGERVVTAGQTVRVVFTSNGLQVSSEGKALAAGAVGDDIQVRAASGKVIRGTVTGPGVVQV	0.233
HMHGLNQNKPIPIADIVNSVNNYLTSLGKKTITDNSVLSNLKKAAKYLNTAYNLVLRPDSLNMTVTLL	0.323
HMHIMINPDQLSPEQIQSIRTWAEEGLDLNAIQKRLHEDLNIKLTFMDTRFLLQDLDIRIRQPEPEPEAEQ	-0.208
HMHINLEGLKKIDFRKKIGFLFGSEASGLSNKEVSYANYTLQIPTNINFKSLNLSHSLIIIAQFISSLLNS	-0.55
HMHKIRRQTKITKSLLDQIEGIGSSRKKALLNHFGSAKAVGEAGETDLGTVKGISNSLAKKIYDFFHAT	-0.545
HMHLDIGQLVQRILADIQVGKLADGQRKLPAEPVLMERYQVTRYTLRQALKQLSNMGYTYQMHGIGTFVRQ	-1.79
HMHLKDEHGLTPKQRAFADEYVITLNATVSYKKIYSVKRDSVASTNGSRLLGNANVKAYIDKRLEE	-2.26
HMHLKRQEAINLGAYLLGAELRIHRLSLEELGSERIDEMLAAINYKTLDDLLADIGLGNRPARFVARQLG	-1.86
HMHLLGASIAAYRKKAGMTQEDLGRALFVSGQAVSRWERGGTPDSDMLPKIADVLGISLDTLFGRS	-1.57
HMHLRYTYIYDNENRVTSKEASKWDSTQEAWVPYFKMNVSYVNNEVELSYARWNSKSNAYDSSIKKTI	-2.54
HMHLTNIPKGFTPSFDTKQWIVEEFGERYNYDNELKIFINHYRASGTTKSDWQYAFRSWLLRAKKFT	-2.83
HMHLTRYLHTMIRAANLDDTLDFFVEKLGLIEAYRYSNEAGRFTLVFLSAPDDLESAQSRQAPLVEITYN	-1.32
HMHLYDMYNLTEKEISIIRLIANGLNNKEISQELFLSEGTIKNNITNILAKLELRDRTQLAIFAFKNKIVI	-3.6
HMHMELHEKIRLARELNKWSQEEVAEKLEMSPSGYAKIERGETALNIPRLEQIAEIFNIDIWELVKA	-1.04
HMHMHTADDFKQLAKHTSNGRLRTRYLALYHFKKGETRTQIAAYLGVARGSVNTWVSNYLAYGLEGLQS	-2.53
HMHMIDDYLARIGQLIRDARQHRGWTQVQLAEALGTSQSAVNRIERGNQNISLEMIARIGEALGSEIVSLG	-2.24
HMHMKTIEWDSLVLIMYKDMKYLKRINEGQSFHGKGGMLNYADLIGKTYGIRFGQYEIFEPSLEDIVMYG	-0.0889
HMHMSKKLADSISALRKKNGLSQEQLAEKIGISRQTVSNWERGIATPDVETLNLISKLFDEDLSVMING	-0.073
HMHNISQTGRRIAGMTQERWAEALDISVESVRLYESGRGMPSDDVATRMVEVSGAPVLGYWH	-0.458
HMHNPSYDMSKDVDILVMKFRDYNNLTDDEARFLLDKAKDAYYNTGKEILSDNEYDTLEKSLGQE	-0.000671
